This data set concerns the molecule itself. Briefly: co-expression in CHO-3E7, gel analysis (FIG. 6). The protocol: High level and high-throughput recombinant protein production by transient transfection of suspension-growing […] CHO-3E7 was performed. See Table 3 for construct boundaries of the two scaffolds described here: Albumin based heteromultimer 1 (ABH1) and Albumin based heteromultimer 2 (ABH2). Albumin based heteromultimer 2 comprises one disulfide bond between the two transporter polypeptides, while Albumin based heteromultimer 1 is formed entirely by non-covalent interactions. FIG. 6A provides SDS-PAGE (non-reducing) gel analysis of the two heteromultimer constructs (ABH1 and ABH2), after co-expression (different DNA transfection ratios are shown). WT full-length HSA is shown as control. As expected, ABH2 retains the disulfide linkage in non-reducing SDS-PAGE, with a MW roughly double the non-disulfide linked ABH1. FIG. 6B provides Native gel analysis of the two Albumin based heteromultimer constructs (ABH1 and ABH2), after co-expression (1:1 DNA level). WT full-length HSA is shown as control. […]
WT-HSA and the two Albumin based heteromultimers (ABH1 and ABH2) were expressed in CHO-3E7 cell line grown in suspension in FreeStyle F17 medium (Invitrogen) supplemented with 0.1% w/v pluronic and 4 mM glutamine. […] At 24-48 hours, GFP positive cells should be between 30-60% as determined by flow cytometry.

B1: Albumin based Transporter polypeptide 1-Ver 2 (other)
chain: DAHKSEVAHRFKDLGEENFKALVLIAFAQYLQQCPFEDHVKLVNEVTEFAKTCVADESAENCDKSLHTLFGDKLCTVATLRETYGEMADCCAKQEPERNECFLQHKDDNPNLPRLVRPEVDVMCTAFHDNEETFLKKYLYEIARRHPYFYAPELLFFAKRYKAAFTECCQAADKAACLLPKLDELRDEGKASSAKQRLKCASLQKFGERAFKAWAVARLSQRFPKAEFAEVSKLVTDLTKVHTECCHGDLLECADDRADLAKYICENQDSISSKLKECCEKPLLEKSHCIAEVENDEMPADLPSLAADFVESKDVCKNYAEAKDVFLGMFLYEYARA
notes: First chain of ABH2; also called F1; ABH2 segment 1:337
On to B1, for which the binding result is “no binding”.

B2: Albumin based Transporter polypeptide 1-Ver 1 (other)
chain: DAHKSEVAHRFKDLGEENFKALVLIAFAQYLQQCPFEDHVKLVNEVTEFAKTCVADESAENCDKSLHTLFGDKLCTVATLRETYGEMADCCAKQEPERNECFLQHKDDNPNLPRLVRPEVDVMCTAFHDNEETFLKKYLYEIARRHPYFYAPELLFFAKRYKAAFTECCQAADKAACLLPKLDELRDEGKASSAKQRLKCASLQKFGERAFKAWAVARLSQRFPKAEFAEVSKLVTDLTKVHTECCHGDLLECADDRADLAKYICENQDSISSKLKECCEKPLLEKSHCIAEV
notes: also called ABH1 segment 1:293
B2: the binding result is recorded as “no binding”.
